This note sets out measurements from paper PMC5636811, “High-fidelity DNA replication in Mycobacterium tuberculosis relies on a trinuclear zinc center”.

The target of this series is DnaE1 (replicative DNA polymerase);β-clamp (Mycobacterium …, UniProt P9WNT7;P9WNU1 1-1184;1-402, |). The experiment in a line: cryo-EM 2D class average. The following applies: protein: recombinant;recombinant; tags: His tag cleaved with HRV 3C protease;; copies: 1;2.
Sequence of DnaE1 (replicative DNA polymerase);β-clamp (P9WNT7 whole entry, chain 1 of 2): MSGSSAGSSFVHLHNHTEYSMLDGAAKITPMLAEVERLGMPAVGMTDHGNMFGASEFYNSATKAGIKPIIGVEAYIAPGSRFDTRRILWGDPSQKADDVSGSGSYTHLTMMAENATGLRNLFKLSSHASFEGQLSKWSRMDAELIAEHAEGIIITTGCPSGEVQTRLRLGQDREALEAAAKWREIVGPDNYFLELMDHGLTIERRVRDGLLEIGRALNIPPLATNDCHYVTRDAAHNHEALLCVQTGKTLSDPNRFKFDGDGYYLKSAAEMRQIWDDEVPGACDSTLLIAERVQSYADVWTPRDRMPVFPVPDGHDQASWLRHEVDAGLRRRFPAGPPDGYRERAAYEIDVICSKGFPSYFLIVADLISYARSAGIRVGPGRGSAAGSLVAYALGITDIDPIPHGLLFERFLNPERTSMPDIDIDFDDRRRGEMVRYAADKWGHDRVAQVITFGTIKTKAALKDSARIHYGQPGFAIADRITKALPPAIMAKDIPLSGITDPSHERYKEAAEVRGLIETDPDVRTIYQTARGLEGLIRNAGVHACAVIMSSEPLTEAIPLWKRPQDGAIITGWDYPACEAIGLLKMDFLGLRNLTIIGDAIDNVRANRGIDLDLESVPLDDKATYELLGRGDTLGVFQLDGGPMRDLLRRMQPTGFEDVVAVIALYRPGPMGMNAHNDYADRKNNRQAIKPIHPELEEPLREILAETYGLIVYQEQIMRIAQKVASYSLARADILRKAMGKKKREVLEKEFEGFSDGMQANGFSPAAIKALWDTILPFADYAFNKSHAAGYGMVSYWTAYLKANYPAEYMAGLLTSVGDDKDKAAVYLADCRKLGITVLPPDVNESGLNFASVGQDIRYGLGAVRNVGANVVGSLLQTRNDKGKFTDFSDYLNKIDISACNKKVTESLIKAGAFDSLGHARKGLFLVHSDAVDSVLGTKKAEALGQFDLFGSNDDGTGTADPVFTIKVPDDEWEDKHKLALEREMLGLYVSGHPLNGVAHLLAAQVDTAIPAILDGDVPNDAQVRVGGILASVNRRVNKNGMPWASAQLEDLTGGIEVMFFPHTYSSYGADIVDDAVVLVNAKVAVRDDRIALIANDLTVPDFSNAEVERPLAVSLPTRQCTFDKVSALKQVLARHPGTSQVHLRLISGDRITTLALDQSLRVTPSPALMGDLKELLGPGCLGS
Sequence of DnaE1 (replicative DNA polymerase);β-clamp (P9WNU1 whole entry, chain 2 of 2): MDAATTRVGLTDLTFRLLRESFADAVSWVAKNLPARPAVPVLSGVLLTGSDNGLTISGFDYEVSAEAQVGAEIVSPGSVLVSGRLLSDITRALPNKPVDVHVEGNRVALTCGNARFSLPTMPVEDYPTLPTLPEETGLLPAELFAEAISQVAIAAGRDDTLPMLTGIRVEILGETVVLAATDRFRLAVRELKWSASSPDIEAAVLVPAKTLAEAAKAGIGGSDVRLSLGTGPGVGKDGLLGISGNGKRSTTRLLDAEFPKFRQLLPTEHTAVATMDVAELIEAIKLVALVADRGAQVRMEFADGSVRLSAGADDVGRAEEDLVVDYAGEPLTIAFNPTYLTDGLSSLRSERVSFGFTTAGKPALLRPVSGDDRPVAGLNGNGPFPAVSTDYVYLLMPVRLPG

B1: mismatched primer-template cryo-EM substrate (dsDNA)
DNA 1: CCCCTCAGGAGTCCTTCGTCCTAGTACTACTCC
DNA 2: GGAGTAGTACTAGGACGAAGGACGT
modifications: phosphorothioate between last two nt of primer (GsT)
Regarding B1, the binding result is “binds”.
